Measured values taken from patent publication US10562935B2, “Stapled peptides and uses thereof” (London Health Sciences Centre Research Inc., priority 2015, dated 2020).
Bridges are numbered along the chain shown (N, C = ends).

What was measured:
[1] = Circular dichroism (CD) spectroscopy of linear and stapled peptides in water or 40% TFE/water (Example 3); format: physicochemical; details: for [0]208 mean residue ellipticity: λ = 208 nm; for [0]222 mean residue ellipticity: λ = 222 nm
Summary of the method: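 Spectra 180–260 nm at 20 °C, 0.5 mM N-acetylated, C-amidated peptides in 0.1M phosphate buffer (water) or 40% TFE/water, 1 mm path, five scans averaged, buffer baseline subtracted. Mean residue ellipticity reported at 222 and 208 nm with the 222/208 ratio as helicity index.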

[2] = test system: RHAMM-overexpressing (LR21) cells; assay: Cell migration assay (Boyden chamber, Chemicon ECM510); format: cell-based; details: for Migration (% inhib.): % inhibition relative to positive control; for inhibition of cell migration (in words): 10 ng/mL peptide, 20 hours, compared to 30% serum control
Summary of the method: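 Serum-starved LR21 cells (7.5×10^4) placed in the upper Boyden chamber with or without 10 ng/mL peptide, with 30% FBS in DMEM as lower-chamber chemoattractant. Cells crossing the membrane after 20 h quantified by CyQUANT GR fluorescence (480/520 nm); mean of n=3, compared with 30% serum control.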

NF-κB = assay: Inflammation assay: NF-κB inducible SEAP reporter in RAW-Blue macrophages stimulated with PAM3CSK4; format: cell-based, murine; details: for Inflammation (% Inhib.): % inhibition relative to positive control; for inhibition of inflammation (SEAP / NF-κB activity, in words): 10 ng/mL peptide with 200 ng/mL PAM3CSK4, 18 hours, compared to +PAM3
Experimental: Compounds 132, 133, 135, 150, 152, 157-161, 265-269, 275, 277, and 278 were evaluated for their ability to inhibit inflammation. To determine the effect of the peptides on inflammation, commercially available murine RAW 264.7 macrophages carrying a secreted embryonic alkaline phosphatase (SEAP) reporter that is inducible by NF-κB (RAW-Blue; InvivoGen, San Diego, Calif., USA) were used. Cells were grown to 80% confluence in DMEM containing 4.5 g/L glucose, 10% heat-inactivated fetal bovine serum, 2 mM L-glutamine, 50 μg/mL penicillin/streptomycin, 100 μg/mL Normocin (InvivoGen) at 37° C. in 5% CO2. For peptide screening experiments, cells were scraped in growth medium, counted, and plated to flat-bottom 96-well plates at a density of 5×10^4 cells/well either in the presence or absence (control) of 200 ng/mL TLR1/TLR2 agonist PAM3CSK4 (InvivoGen). Peptides were added in 6 replicate wells at a dose of 10 ng/mL in the presence of PAM3CSK4. After 18 hours of stimulation, SEAP concentrations (indicating NF-κB activity) were measured in the supernatants collected from the RAW-Blue cells using QUANTI-BLUE reagent (InvivoGen). After 20 minutes of incubation at 37° C., SEAP levels were determined using spectrophotometry at a wavelength of 630 nm.
Values are the mean and SDM of n=3 replicates. *p<0.05 and ***p<0.001 compared to +PAM3. In FIGS. 44 and 45, where bars are labeled with two compound numbers (“133/150” and “135/152”) this means that the data were pooled for the indicated compounds, i.e., for the non-acetylated and acetylated versions of the indicated peptides.

[3] = [θ]222/[θ]208 ratio in water, summary tables 15, 17, 19
[4] = as repeated in tables 16, 18, 20

Substance	[θ]222/[θ]208 ratio of ellipticities [1, 3]	[θ]222/[θ]208 ratio of ellipticities [1, 4]	[0]222/[0]208 ratio of ellipticities ([1]; in 40% TFE/water)	[0]222/[0]208 ratio of ellipticities ([1]; in water)	[0]208 mean residue ellipticity ([1]; in water) [deg cm^2 dmol^−1]	[0]222 mean residue ellipticity ([1]; in 40% TFE/water) [deg cm^2 dmol^−1]	[0]222 mean residue ellipticity ([1]; in water) [deg cm^2 dmol^−1]	Migration (% inhib.) [2] [% inhib.]	Inflammation (% Inhib.) (NF-κB)	[0]208 mean residue ellipticity ([1]; in 40% TFE/water) [deg cm^2 dmol^−1]	inhibition of cell migration (in words) [2]	inhibition of inflammation (SEAP / NF-κB activity, in words) (NF-κB)	[0]208 mean residue ellipticity at λ=208 nm ([1]; 40% TFE/water) [deg cm^2 dmol^−1]	[0]222/[0]208 ratio of ellipticities ([1]; 40% TFE/water)	[0]222 mean residue ellipticity at λ=222 nm ([1]; 40% TFE/water) [deg cm^2 dmol^−1]	alpha-helical character by CD (in words) ([1]; in water)	[0]208 mean residue ellipticity at λ=208 nm ([1]; water) [deg cm^2 dmol^−1]	[0]222/[0]208 ratio of ellipticities ([1]; water)	[0]222 mean residue ellipticity at λ=222 nm ([1]; water) [deg cm^2 dmol^−1]
Ac-(cyclo-6,10)-NLKQK[EKHVK]KLKDE-NH2 (Ac-NLKQKEKHVKKLKDE-NH2; lactam 6-10; SMILES CC(=O)N[C@@H](CC(N)=O)C(=O)N[C@@H](CC(C)C)C(=O)N[C@@H](CCCCN)C(=O)N[C@@H](CCC(N)=O)C(=O)N[C@@H](CCCCN)C(=O)N[C@H]1CCC(=O)NCCCC[C@@H](C(=O)N[C@@H](CCCCN)C(=O)N[C@@H](CC(C)C)C(=O)N[C@@H](CCCCN)C(=O)N[C@@H](CC(=O)O)C(=O)N[C@@H](CCC(=O)O)C(N)=O)NC(=O)[C@H](C(C)C)NC(=O)[C@H](Cc2c[nH]cn2)NC(=O)[C@H](CCCCN)NC1=O) [Compound 159]	0.44	0.44	0.85	0.44	-5.95E+03	-1.26E+04	-2.61E+03	0	0	–	–	–	–	–	–	–	–	–	–
Ac-(cyclo-6,10)-VSKLR[EQLVK]RKQN-NH2 (Ac-VSKLREQLVKRKQN-NH2; lactam 6-10; SMILES CC(=O)N[C@H](C(=O)N[C@@H](CO)C(=O)N[C@@H](CCCCN)C(=O)N[C@@H](CC(C)C)C(=O)N[C@@H](CCCNC(=N)N)C(=O)N[C@H]1CCC(=O)NCCCC[C@@H](C(=O)N[C@@H](CCCNC(=N)N)C(=O)N[C@@H](CCCCN)C(=O)N[C@@H](CCC(N)=O)C(=O)N[C@@H](CC(N)=O)C(N)=O)NC(=O)[C@H](C(C)C)NC(=O)[C@H](CC(C)C)NC(=O)[C@H](CCC(N)=O)NC1=O)C(C)C) [Compound 152]	–	0.61	0.70	0.61	-7.90E+03	-1.19E+04	-4.85E+03	–	–	-1.50E+04	significantly inhibit cell migration	significantly inhibited inflammation	–	–	–	–	–	–	–
Ac-(cyclo-7,11)-NLKQKI[EHVVK]LKDE-NH2 (Ac-NLKQKIEHVVKLKDE-NH2; lactam 7-11; SMILES CC[C@H](C)[C@H](NC(=O)[C@H](CCCCN)NC(=O)[C@H](CCC(N)=O)NC(=O)[C@H](CCCCN)NC(=O)[C@H](CC(C)C)NC(=O)[C@H](CC(N)=O)NC(C)=O)C(=O)N[C@H]1CCC(=O)NCCCC[C@@H](C(=O)N[C@@H](CC(C)C)C(=O)N[C@@H](CCCCN)C(=O)N[C@@H](CC(=O)O)C(=O)N[C@@H](CCC(=O)O)C(N)=O)NC(=O)[C@H](C(C)C)NC(=O)[C@H](C(C)C)NC(=O)[C@H](Cc2c[nH]cn2)NC1=O) [Compound 160]	0.55	0.55	0.86	0.55	-6.98E+03	-1.42E+04	-3.85E+03	0	0	-1.65E+04	–	–	–	–	–	–	–	–	–
Ac-(cyclo-7-11, cyclo-28-32)-NLKQKI[EHVVK]LKDENSQLKSEVSKLR[EQLVK]RKQN-NH2 (Ac-NLKQKIEHVVKLKDENSQLKSEVSKLREQLVKRKQN-NH2; lactam 7-11, 28-32; SMILES CC[C@H](C)[C@H](NC(=O)[C@H](CCCCN)NC(=O)[C@H](CCC(N)=O)NC(=O)[C@H](CCCCN)NC(=O)[C@H](CC(C)C)NC(=O)[C@H](CC(N)=O)NC(C)=O)C(=O)N[C@H]1CCC(=O)NCCCC[C@@H](C(=O)N[C@@H](CC(C)C)C(=O)N[C@@H](CCCCN)C(=O)N[C@@H](CC(=O)O)C(=O)N[C@@H](CCC(=O)O)C(=O)N[C@@H](CC(N)=O)C(=O)N[C@@H](CO)C(=O)N[C@@H](CCC(N)=O)C(=O)N[C@@H](CC(C)C)C(=O)N[C@@H](CCCCN)C(=O)N[C@@H](CO)C(=O)N[C@@H](CCC(=O)O)C(=O)N[C@H](C(=O)N[C@@H](CO)C(=O)N[C@@H](CCCCN)C(=O)N[C@@H](CC(C)C)C(=O)N[C@@H](CCCNC(=N)N)C(=O)N[C@H]2CCC(=O)NCCCC[C@@H](C(=O)N[C@@H](CCCNC(=N)N)C(=O)N[C@@H](CCCCN)C(=O)N[C@@H](CCC(N)=O)C(=O)N[C@@H](CC(N)=O)C(N)=O)NC(=O)[C@H](C(C)C)NC(=O)[C@H](CC(C)C)NC(=O)[C@H](CCC(N)=O)NC2=O)C(C)C)NC(=O)[C@H](C(C)C)NC(=O)[C@H](C(C)C)NC(=O)[C@H](Cc2c[nH]cn2)NC1=O) [Compound 278]	0.74	0.74	–	0.74	–	–	–	45	0	–	significantly inhibit cell migration	–	-2.44E04	0.86	-2.12E04	greatest alpha-helical character	-1.33E+04	0.74	-9.95E+03
Ac-(cyclo-8,12)-NLKQKIK[EVVKK]KDE-NH2 (Ac-NLKQKIKEVVKKKDE-NH2; lactam 8-12; SMILES CC[C@H](C)[C@H](NC(=O)[C@H](CCCCN)NC(=O)[C@H](CCC(N)=O)NC(=O)[C@H](CCCCN)NC(=O)[C@H](CC(C)C)NC(=O)[C@H](CC(N)=O)NC(C)=O)C(=O)N[C@@H](CCCCN)C(=O)N[C@H]1CCC(=O)NCCCC[C@@H](C(=O)N[C@@H](CCCCN)C(=O)N[C@@H](CC(=O)O)C(=O)N[C@@H](CCC(=O)O)C(N)=O)NC(=O)[C@H](CCCCN)NC(=O)[C@H](C(C)C)NC(=O)[C@H](C(C)C)NC1=O) [Compound 161]	0.31	0.31	0.82	0.31	-5.85E+03	-1.60E+04	-1.80E+03	36	6	-1.96E+04	significantly inhibit cell migration	significantly inhibited inflammation	–	–	–	decreased helicity	–	–	–
